Patent US20230190867A1, “METHODS OF TREATING NASH AND COMPOSITIONS THEREFORE” (BIOINCEPT, LLC, priority 2018, published 2023)

Experiments:
[1] = molecular target: Cytochrome b5 (Homo sapiens) (UniProt P00167); experiment: PIF-agarose affinity extraction of normal human liver lysate 3, LC-MS/MS
[2] = molecular target: Peroxiredoxin-1 (Homo sapiens) (UniProt Q06830); experiment: as above
[3] = molecular target: Membrane-associated progesterone receptor component 1 (Homo sapiens) (UniProt O00264); experiment: as above
[4] = molecular target: Protein disulfide-isomerase A3 (Homo sapiens) (UniProt P30101); experiment: as above
[5] = molecular target: Enoyl-CoA hydratase domain-containing protein 2, mitochondrial (Homo sapiens) (UniProt Q86YB7); experiment: as above
[6] = molecular target: Calmodulin (Homo sapiens) (UniProt P0DP23); experiment: as above
[7] = molecular target: Endoplasmin (Homo sapiens) (UniProt P14625); experiment: as above
[8] = molecular target: Calreticulin (Homo sapiens) (UniProt P27797); experiment: as above
[9] = molecular target: Transitional endoplasmic reticulum ATPase (Homo sapiens) (UniProt P55072); experiment: as above
[10] = molecular target: Delta-aminolevulinic acid dehydratase (Homo sapiens) (UniProt P13716); experiment: as above
[11] = molecular target: Activated RNA polymerase II transcriptional coactivator p15 (Homo sapiens) (UniProt P53999); experiment: as above
[12] = molecular target: Protein disulfide-isomerase (Homo sapiens) (UniProt P07237); experiment: as above
[13] = molecular target: Alcohol dehydrogenase 1A (Homo sapiens) (UniProt P07327); experiment: as above
[14] = molecular target: 14-3-3 protein epsilon (Homo sapiens) (UniProt P62258); experiment: as above
[15] = molecular target: Alcohol dehydrogenase 4 (Homo sapiens) (UniProt P08319); experiment: as above
[16] = molecular target: Vimentin (Homo sapiens) (UniProt P08670); experiment: as above
[17] = molecular target: Tropomyosin alpha-4 chain (Homo sapiens) (UniProt P67936); experiment: as above
[18] = molecular target: Hepatoma-derived growth factor (Homo sapiens) (UniProt P51858); experiment: as above
[19] = molecular target: Alpha-actinin-4 (Homo sapiens) (UniProt O43707); experiment: as above
[20] = molecular target: Cytosolic 10-formyltetrahydrofolate dehydrogenase (Homo sapiens) (UniProt O75891); experiment: as above
[21] = molecular target: Parathymosin (Homo sapiens) (UniProt P20962); experiment: as above
[22] = molecular target: Alcohol dehydrogenase 1B (Homo sapiens) (UniProt P00325); experiment: as above
[23] = molecular target: Protein disulfide-isomerase A4 (Homo sapiens) (UniProt P13667); experiment: as above
[24] = molecular target: 78 kDa glucose-regulated protein (Homo sapiens) (UniProt P11021); experiment: as above
[25] = molecular target: Cytochrome b-c1 complex subunit 6, mitochondrial (Homo sapiens) (UniProt P07919); experiment: as above
[26] = molecular target: Cytochrome b5 (Homo sapiens) (UniProt P00167); experiment: PIF-agarose affinity extraction of normal human liver lysate 1, LC-MS/MS
[27] = molecular target: Membrane-associated progesterone receptor component 1 (Homo sapiens) (UniProt O00264); experiment: as above
[28] = molecular target: Protein disulfide-isomerase A3 (Homo sapiens) (UniProt P30101); experiment: as above
[29] = molecular target: Endoplasmin (Homo sapiens) (UniProt P14625); experiment: as above
[30] = molecular target: Activated RNA polymerase II transcriptional coactivator p15 (Homo sapiens) (UniProt P53999); experiment: as above
[31] = molecular target: Protein disulfide-isomerase (Homo sapiens) (UniProt P07237); experiment: as above
[32] = molecular target: 14-3-3 protein epsilon (Homo sapiens) (UniProt P62258); experiment: as above
[33] = molecular target: Tropomyosin alpha-4 chain (Homo sapiens) (UniProt P67936); experiment: as above
[34] = molecular target: Alpha-actinin-4 (Homo sapiens) (UniProt O43707); experiment: as above
[35] = molecular target: Cytosolic 10-formyltetrahydrofolate dehydrogenase (Homo sapiens) (UniProt O75891); experiment: as above
[36] = molecular target: Parathymosin (Homo sapiens) (UniProt P20962); experiment: as above
[37] = molecular target: Protein disulfide-isomerase A4 (Homo sapiens) (UniProt P13667); experiment: as above
[38] = molecular target: Cytochrome b-c1 complex subunit 6, mitochondrial (Homo sapiens) (UniProt P07919); experiment: as above

Chain of Endoplasmin (Homo sapiens) (P14625 22-803 limits assumed): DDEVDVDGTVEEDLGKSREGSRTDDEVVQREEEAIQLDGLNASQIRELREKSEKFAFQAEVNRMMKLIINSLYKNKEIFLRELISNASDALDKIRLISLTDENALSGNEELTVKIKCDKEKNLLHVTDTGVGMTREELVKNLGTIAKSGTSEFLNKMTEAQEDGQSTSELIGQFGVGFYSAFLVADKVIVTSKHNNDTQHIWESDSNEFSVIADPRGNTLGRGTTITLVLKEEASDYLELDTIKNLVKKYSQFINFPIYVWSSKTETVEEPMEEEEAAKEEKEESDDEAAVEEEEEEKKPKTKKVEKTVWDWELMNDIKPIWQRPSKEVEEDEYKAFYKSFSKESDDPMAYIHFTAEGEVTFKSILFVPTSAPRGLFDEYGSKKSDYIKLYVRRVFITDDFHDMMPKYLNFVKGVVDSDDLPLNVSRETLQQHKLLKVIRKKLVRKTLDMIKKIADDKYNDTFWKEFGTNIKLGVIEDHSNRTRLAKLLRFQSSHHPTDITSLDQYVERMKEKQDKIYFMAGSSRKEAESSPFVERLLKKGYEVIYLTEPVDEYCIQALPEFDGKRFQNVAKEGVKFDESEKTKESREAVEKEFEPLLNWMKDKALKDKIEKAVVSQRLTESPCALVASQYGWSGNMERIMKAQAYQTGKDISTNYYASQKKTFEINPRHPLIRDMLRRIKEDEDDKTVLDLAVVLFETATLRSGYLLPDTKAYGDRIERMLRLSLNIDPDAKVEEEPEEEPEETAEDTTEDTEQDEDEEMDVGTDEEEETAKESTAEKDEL
Chain of Tropomyosin alpha-4 chain (Homo sapiens) (P67936 2-248 limits assumed): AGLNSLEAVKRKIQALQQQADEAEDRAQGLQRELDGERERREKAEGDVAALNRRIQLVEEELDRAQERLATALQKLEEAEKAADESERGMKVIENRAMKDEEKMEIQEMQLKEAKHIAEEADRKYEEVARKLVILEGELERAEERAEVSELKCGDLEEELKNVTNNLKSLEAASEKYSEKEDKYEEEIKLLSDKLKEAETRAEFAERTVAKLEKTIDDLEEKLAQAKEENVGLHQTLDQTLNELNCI
Chain of Protein disulfide-isomerase A3 (Homo sapiens) (P30101 25-505 limits assumed): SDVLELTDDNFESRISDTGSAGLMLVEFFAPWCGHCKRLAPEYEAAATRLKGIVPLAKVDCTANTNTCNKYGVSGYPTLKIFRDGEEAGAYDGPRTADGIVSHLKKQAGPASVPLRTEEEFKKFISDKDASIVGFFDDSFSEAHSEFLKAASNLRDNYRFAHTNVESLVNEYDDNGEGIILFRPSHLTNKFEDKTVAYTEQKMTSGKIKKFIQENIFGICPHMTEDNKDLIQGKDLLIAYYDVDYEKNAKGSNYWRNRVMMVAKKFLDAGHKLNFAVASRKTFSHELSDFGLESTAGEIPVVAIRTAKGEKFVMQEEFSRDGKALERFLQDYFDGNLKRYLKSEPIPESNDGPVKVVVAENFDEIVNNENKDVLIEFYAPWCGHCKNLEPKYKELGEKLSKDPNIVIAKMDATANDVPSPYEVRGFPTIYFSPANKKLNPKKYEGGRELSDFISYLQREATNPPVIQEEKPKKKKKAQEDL
Chain of Cytochrome b-c1 complex subunit 6, mitochondrial (Homo sapiens) (P07919 14-91 limits assumed, one chain of several): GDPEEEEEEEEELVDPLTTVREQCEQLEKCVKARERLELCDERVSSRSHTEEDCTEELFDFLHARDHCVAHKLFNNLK
Chain of Cytosolic 10-formyltetrahydrofolate dehydrogenase (Homo sapiens) (O75891 whole entry): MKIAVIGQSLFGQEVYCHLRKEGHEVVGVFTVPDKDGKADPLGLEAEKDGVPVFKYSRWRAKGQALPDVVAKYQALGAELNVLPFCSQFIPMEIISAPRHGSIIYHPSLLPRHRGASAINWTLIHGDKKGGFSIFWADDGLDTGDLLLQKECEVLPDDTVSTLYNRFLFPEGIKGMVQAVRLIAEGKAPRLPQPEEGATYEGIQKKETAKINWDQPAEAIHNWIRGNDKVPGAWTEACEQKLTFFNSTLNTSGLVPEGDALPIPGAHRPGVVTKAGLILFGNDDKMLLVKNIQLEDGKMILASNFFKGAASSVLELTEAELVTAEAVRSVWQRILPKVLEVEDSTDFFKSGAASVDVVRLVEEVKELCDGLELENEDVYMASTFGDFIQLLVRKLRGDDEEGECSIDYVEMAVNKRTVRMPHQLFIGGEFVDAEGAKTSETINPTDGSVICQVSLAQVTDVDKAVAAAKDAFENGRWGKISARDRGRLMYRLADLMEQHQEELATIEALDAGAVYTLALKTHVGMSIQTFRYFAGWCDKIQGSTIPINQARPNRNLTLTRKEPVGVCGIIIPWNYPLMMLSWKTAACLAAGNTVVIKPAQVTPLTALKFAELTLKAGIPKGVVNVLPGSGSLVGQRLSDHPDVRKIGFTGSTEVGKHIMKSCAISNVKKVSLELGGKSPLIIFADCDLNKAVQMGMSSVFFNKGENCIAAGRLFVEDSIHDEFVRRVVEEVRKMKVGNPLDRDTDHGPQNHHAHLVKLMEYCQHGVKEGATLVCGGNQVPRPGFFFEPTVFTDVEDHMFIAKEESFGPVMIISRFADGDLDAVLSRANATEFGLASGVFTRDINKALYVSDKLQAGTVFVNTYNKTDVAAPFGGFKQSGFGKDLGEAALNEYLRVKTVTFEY
Chain of Protein disulfide-isomerase (Homo sapiens) (P07237 18-508 limits assumed): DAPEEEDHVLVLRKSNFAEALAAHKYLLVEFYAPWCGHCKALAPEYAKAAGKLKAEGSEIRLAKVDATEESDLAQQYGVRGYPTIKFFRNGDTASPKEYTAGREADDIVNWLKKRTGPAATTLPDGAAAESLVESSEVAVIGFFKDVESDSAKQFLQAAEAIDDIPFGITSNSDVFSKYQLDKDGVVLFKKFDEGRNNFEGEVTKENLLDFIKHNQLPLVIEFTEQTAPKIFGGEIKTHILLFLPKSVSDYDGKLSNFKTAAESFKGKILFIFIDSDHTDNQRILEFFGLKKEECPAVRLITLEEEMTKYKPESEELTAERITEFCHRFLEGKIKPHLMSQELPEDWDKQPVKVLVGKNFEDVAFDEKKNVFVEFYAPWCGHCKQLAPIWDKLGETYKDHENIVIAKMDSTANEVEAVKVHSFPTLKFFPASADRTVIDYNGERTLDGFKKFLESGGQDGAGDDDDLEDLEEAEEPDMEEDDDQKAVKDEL
Chain of Membrane-associated progesterone receptor component 1 (Homo sapiens) (O00264 whole entry): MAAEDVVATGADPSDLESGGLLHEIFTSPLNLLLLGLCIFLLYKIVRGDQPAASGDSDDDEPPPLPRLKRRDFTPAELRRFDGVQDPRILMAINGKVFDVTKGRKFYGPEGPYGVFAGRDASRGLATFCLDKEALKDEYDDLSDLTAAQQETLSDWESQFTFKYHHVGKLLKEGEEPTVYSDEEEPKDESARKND
Chain of 14-3-3 protein epsilon (Homo sapiens) (P62258 whole entry): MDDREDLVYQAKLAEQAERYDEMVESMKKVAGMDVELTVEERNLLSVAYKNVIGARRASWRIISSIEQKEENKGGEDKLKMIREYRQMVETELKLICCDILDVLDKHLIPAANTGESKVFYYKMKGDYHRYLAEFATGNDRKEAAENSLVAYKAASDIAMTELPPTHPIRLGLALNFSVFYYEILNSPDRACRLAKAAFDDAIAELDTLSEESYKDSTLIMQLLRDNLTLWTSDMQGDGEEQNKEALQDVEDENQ
Chain of Cytochrome b5 (Homo sapiens) (P00167 2-134 limits assumed): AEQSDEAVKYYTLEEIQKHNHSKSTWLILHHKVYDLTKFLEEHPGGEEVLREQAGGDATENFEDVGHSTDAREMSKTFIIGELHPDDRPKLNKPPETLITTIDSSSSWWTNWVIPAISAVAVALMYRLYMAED
Chain of Protein disulfide-isomerase A4 (Homo sapiens) (P13667 21-645 limits assumed): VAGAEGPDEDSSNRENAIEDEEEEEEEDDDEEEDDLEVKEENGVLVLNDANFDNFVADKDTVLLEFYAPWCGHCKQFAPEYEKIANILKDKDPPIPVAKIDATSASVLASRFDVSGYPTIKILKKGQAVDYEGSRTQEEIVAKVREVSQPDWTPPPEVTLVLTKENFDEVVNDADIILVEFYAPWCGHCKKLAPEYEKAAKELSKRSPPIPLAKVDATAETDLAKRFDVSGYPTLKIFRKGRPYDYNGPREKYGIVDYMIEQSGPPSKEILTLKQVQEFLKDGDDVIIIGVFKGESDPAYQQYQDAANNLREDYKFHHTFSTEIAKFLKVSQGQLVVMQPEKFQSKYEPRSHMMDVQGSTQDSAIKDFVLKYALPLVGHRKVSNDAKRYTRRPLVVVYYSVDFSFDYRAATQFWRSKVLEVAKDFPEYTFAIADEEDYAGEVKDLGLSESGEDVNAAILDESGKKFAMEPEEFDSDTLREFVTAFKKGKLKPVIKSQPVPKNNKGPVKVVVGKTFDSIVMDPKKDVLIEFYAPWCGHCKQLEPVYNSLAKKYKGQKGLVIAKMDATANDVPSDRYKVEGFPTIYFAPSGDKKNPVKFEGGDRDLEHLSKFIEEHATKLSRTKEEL
Chain of Parathymosin (Homo sapiens) (P20962 2-102 limits assumed): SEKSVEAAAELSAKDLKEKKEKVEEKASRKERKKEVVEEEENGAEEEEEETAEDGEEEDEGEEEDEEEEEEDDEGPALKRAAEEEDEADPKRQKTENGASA
Chain of Alcohol dehydrogenase 1B (Homo sapiens) (P00325 2-375 limits assumed): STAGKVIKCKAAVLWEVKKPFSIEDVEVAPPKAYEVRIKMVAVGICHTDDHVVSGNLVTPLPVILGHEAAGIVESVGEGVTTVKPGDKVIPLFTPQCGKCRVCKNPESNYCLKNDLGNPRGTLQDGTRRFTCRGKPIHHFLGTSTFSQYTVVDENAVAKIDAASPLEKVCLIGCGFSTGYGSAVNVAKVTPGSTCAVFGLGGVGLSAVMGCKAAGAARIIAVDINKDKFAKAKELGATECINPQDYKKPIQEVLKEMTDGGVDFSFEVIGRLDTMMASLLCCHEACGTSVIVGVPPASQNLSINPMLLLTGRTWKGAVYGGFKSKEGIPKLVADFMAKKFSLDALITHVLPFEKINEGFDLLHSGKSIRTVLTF
Chain of Peroxiredoxin-1 (Homo sapiens) (Q06830 2-199 limits assumed): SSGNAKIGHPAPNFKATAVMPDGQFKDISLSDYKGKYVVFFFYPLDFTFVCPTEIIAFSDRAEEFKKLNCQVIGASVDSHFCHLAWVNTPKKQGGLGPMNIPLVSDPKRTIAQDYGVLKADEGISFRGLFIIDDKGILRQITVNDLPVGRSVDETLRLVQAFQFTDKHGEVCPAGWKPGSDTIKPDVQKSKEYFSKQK

Substance: sPIF-1(15) (peptide)
- % Coverage of the unique peptides observed [1]: 43%
- % Coverage of the unique peptides observed [2]: 29%
- % Coverage of the unique peptides observed [3]: 46%
- % Coverage of the unique peptides observed [4]: 42%
- % Coverage of the unique peptides observed [5]: 31%
- % Coverage of the unique peptides observed [6]: 46%
- % Coverage of the unique peptides observed [7]: 43%
- % Coverage of the unique peptides observed [8]: 70%
- % Coverage of the unique peptides observed [9]: 52%
- % Coverage of the unique peptides observed [10]: 25%
- % Coverage of the unique peptides observed [11]: 34%
- % Coverage of the unique peptides observed [12]: 75%
- % Coverage of the unique peptides observed [13]: 54%
- % Coverage of the unique peptides observed [14]: 64%
- % Coverage of the unique peptides observed [15]: 61%
- % Coverage of the unique peptides observed [16]: 52%
- % Coverage of the unique peptides observed [17]: 40%
- % Coverage of the unique peptides observed [18]: 52%
- % Coverage of the unique peptides observed [19]: 19%
- % Coverage of the unique peptides observed [20]: 52%
- % Coverage of the unique peptides observed [21]: 82%
- % Coverage of the unique peptides observed [22]: 66%
- % Coverage of the unique peptides observed [23]: 51%
- % Coverage of the unique peptides observed [24]: 48%
- % Coverage of the unique peptides observed [25]: 58%
- % Coverage of the unique peptides observed [26]: 49%
- % Coverage of the unique peptides observed [27]: 46%
- % Coverage of the unique peptides observed [28]: 45%
- % Coverage of the unique peptides observed [29]: 47%
- % Coverage of the unique peptides observed [30]: 45%
- % Coverage of the unique peptides observed [31]: 76%
- % Coverage of the unique peptides observed [32]: 78%
- % Coverage of the unique peptides observed [33]: 47%
- % Coverage of the unique peptides observed [34]: 48%
- % Coverage of the unique peptides observed [35]: 64%
- % Coverage of the unique peptides observed [36]: 58%
- % Coverage of the unique peptides observed [37]: 52%
- % Coverage of the unique peptides observed [38]: 53%
